B1: INTS3 (parent)
chain: EEITEESLEESVGKPLYLIFRNLC

The text below walks through data of the supplement of paper PMC10567573.
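Also: lentivirally expressed fusions sorted by FACS into six bins by GFP to DsRed ratio, PSI derived from sequencing read proportions per bin multiplied by bin number.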

The variants in the data set derive from B1. The data set can be described thus: protein stability index of a GFP-peptide fusion (GPS, HEK-293T) (PSI 1-6); higher = more stable. Particulars: c terminus: a fixed tail appended.
Consider EEITEESLEESFGKPLYLIFRNLC [V12F], for which the protein stability index came out at 2.56.
Consider EEITEESLEESWGKPLYLIFRNLC [V12W], for which the protein stability index was found to be 2.47.
As for EEITEESLEESCGKPLYLIFRNLC [V12C], the protein stability index amounted to 2.55.
For EEITEESTEESVGKPLYLIFRNLC [L8T], the protein stability index is 3.42.
For EEITEESQEESVGKPLYLIFRNLC [L8Q], the protein stability index worked out at 3.32.
Take EEITEESWEESVGKPLYLIFRNLC [L8W]: the protein stability index was determined as 1.95.
Take EEITEESPEESVGKPLYLIFRNLC [L8P]: the protein stability index is 3.11.
For EEITEESLEESVGKPLYLIFRNLT [C24T] the value was 2.66.
Take EEITEESLEESVGKPLYLIFRNLW [C24W]: the protein stability index worked out at 2.08.
On to EEITEESLEESVGKPLYLIFRNLH [C24H], for which the protein stability index was determined as 2.88.
Regarding EEITEESLEESVGKPLYLIFRNLE [C24E], the protein stability index came to 3.54.
For EEGTEESLEESVGKPLYLIFRNLC [I3G], the protein stability index was found to be 3.13.
For EEDTEESLEESVGKPLYLIFRNLC [I3D] the value was 3.3; for EEKTEESLEESVGKPLYLIFRNLC [I3K], 3.04.
For EEQTEESLEESVGKPLYLIFRNLC [I3Q] the value was 3.36; for EEETEESLEESVGKPLYLIFRNLC [I3E], 3.82.
As to EEITEESLEESVGKPLYLIFRVLC [N22V], the protein stability index was 1.55.
As to EEITEESLEESVGKPLYLIFRGLC [N22G], the protein stability index is 2.19.
EEITEESLEESVGKPLYLIFRSLC [N22S]: the protein stability index came out at 2.79.
As to EEITEESLEESVGKPLYLIFRILC [N22I], the protein stability index was 2.05.
Turning to EEITEESLEESVGKPCYLIFRNLC [L16C], the protein stability index turned out to be 2.68.
With EEITEESLEESVGKPDYLIFRNLC [L16D], the protein stability index stood at 4.26.
To EEITEESLEESVGKPSYLIFRNLC [L16S] belongs 3.29; to EEITEESLEESVGKPRYLIFRNLC [L16R], 3.38; to EEITEESLEESVGKPLILIFRNLC [Y17I], 2.62.
EEITEESLEESVGKPLCLIFRNLC [Y17C]: the protein stability index turned out to be 3.12.
As for EEITEESLEESVGKPLELIFRNLC [Y17E], the protein stability index amounted to 3.33.
Turning to EEITEESLEESVGKPLRLIFRNLC [Y17R], the protein stability index was 2.61.
Take EEITEESLEESVGKPLWLIFRNLC [Y17W]: the protein stability index was 2.84.
For EEITEESLEESVGKPLVLIFRNLC [Y17V] the value was 2.68; for EEITEESLEESVGKPLQLIFRNLC [Y17Q], 2.92.
For the variant EEITEERLEESVGKPLYLIFRNLC [S7R], the protein stability index worked out at 2.98.
In the case of EEITEEGLEESVGKPLYLIFRNLC [S7G], the protein stability index came out at 2.75.
For EEITEEELEESVGKPLYLIFRNLC [S7E] the value was 2.77; for EEITEEQLEESVGKPLYLIFRNLC [S7Q], 2.83.
For EEITEETLEESVGKPLYLIFRNLC [S7T] the value was 3.13; for EEITEEILEESVGKPLYLIFRNLC [S7I], 2.47; for EEITEESLEEIVGKPLYLIFRNLC [S11I], 2.52.
With EEITEESLEEQVGKPLYLIFRNLC [S11Q], the protein stability index was 3.33.
Consider EEITEESLEECVGKPLYLIFRNLC [S11C], for which the protein stability index is 2.34.
On to EEITEESLEESVGKPLYLIFRNFC [L23F], for which the protein stability index came to 3.14.
In the case of EEITEESLEESVGKPLYLIFRNKC [L23K], the protein stability index is 4.52.
Regarding EEITEESLEESVIKPLYLIFRNLC [G13I], the protein stability index worked out at 1.81.
To EEITEESLEESVRKPLYLIFRNLC [G13R] belongs 2.7; to EEITEESLEESVFKPLYLIFRNLC [G13F], 2.28; to EEITEESLEESVNKPLYLIFRNLC [G13N], 2.64.
Turning to EEITEESLEESVCKPLYLIFRNLC [G13C], the protein stability index is 2.37.
Consider EEITEESLEESVGKPLYLIFMNLC [R21M], for which the protein stability index came to 2.1.
Take EEITEESLEESVGKPLYLIFQNLC [R21Q]: the protein stability index stood at 2.77.
On to EEITEESLEESVGKPLYLIFGNLC [R21G], for which the protein stability index came out at 3.1.
For EEITEESLEESVGKPLYLIFTNLC [R21T], the protein stability index was 2.61.
For EEITEESLEESVGKPLYLIFCNLC [R21C] the value was 2.62.
As for EEITEESLEESVGKALYLIFRNLC [P15A], the protein stability index came out at 1.25.
Regarding EEITEESLEESVGKSLYLIFRNLC [P15S], the protein stability index was determined as 2.02.
On to EEITEESLEYSVGKPLYLIFRNLC [E10Y], for which the protein stability index was determined as 2.23.
For EEITEESLENSVGKPLYLIFRNLC [E10N] the value was 2.78.
Take EEITEESLEGSVGKPLYLIFRNLC [E10G]: the protein stability index turned out to be 2.82.
For the variant EEITEESLEESVGKPLYKIFRNLC [L18K], the protein stability index was determined as 3.1.
In the case of EEITEESLEESVGKPLYEIFRNLC [L18E], the protein stability index was 3.12.
In the case of EEITEESLEESVGKPLYIIFRNLC [L18I], the protein stability index was 2.72.
To EEITEESLEESVGKPLYDIFRNLC [L18D] belongs 3.35.
As for EMITEESLEESVGKPLYLIFRNLC [E2M], the protein stability index is 2.1.
For EPITEESLEESVGKPLYLIFRNLC [E2P], the protein stability index was determined as 2.51.
For EFITEESLEESVGKPLYLIFRNLC [E2F], the protein stability index is 2.38.
To ENITEESLEESVGKPLYLIFRNLC [E2N] belongs 2.9.
On to ECITEESLEESVGKPLYLIFRNLC [E2C], for which the protein stability index is 2.48.
In the case of EEITETSLEESVGKPLYLIFRNLC [E6T], the protein stability index came to 2.02.
Take EEITEISLEESVGKPLYLIFRNLC [E6I]: the protein stability index was determined as 2.06.
For EEITEDSLEESVGKPLYLIFRNLC [E6D] the value was 2.7; for EEITEHSLEESVGKPLYLIFRNLC [E6H], 2.44.
Consider EEITEASLEESVGKPLYLIFRNLC [E6A], for which the protein stability index came out at 2.01.
EEITEESLEESVGEPLYLIFRNLC [K14E]: the protein stability index is 3.54.
In the case of EEITEESLEESVGIPLYLIFRNLC [K14I], the protein stability index was found to be 2.78.
For the variant EEITEESLEESVGPPLYLIFRNLC [K14P], the protein stability index was 3.67.
For the variant EEITEESLEESVGKPLYLIVRNLC [F20V], the protein stability index was 2.55.
As for EEITEESLEESVGKPLYLICRNLC [F20C], the protein stability index stood at 3.32.
To EEITEESLEESVGKPLYLIPRNLC [F20P] belongs 4.07.
Regarding EEITEESLEESVGKPLYLIERNLC [F20E], the protein stability index came out at 3.53.
Consider EEITEESLEESVGKPLYLILRNLC [F20L], for which the protein stability index was found to be 2.37.
Regarding EEITEESLEESVGKPLYLIDRNLC [F20D], the protein stability index came to 4.48.
Turning to EEITNESLEESVGKPLYLIFRNLC [E5N], the protein stability index came to 2.64.
For EEITVESLEESVGKPLYLIFRNLC [E5V] the value was 1.72; for EEITEESLEESVGKPLYLGFRNLC [I19G], 3.67; for EEITEESLEESVGKPLYLMFRNLC [I19M], 3.06.
For EEIMEESLEESVGKPLYLIFRNLC [T4M] the value was 2.23.
With EEIDEESLEESVGKPLYLIFRNLC [T4D], the protein stability index stood at 3.38.
For EEIGEESLEESVGKPLYLIFRNLC [T4G], the protein stability index was determined as 2.66.
Consider EEIFEESLEESVGKPLYLIFRNLC [T4F], for which the protein stability index worked out at 2.01.
As to EEITEESLYESVGKPLYLIFRNLC [E9Y], the protein stability index is 1.96.
With EEITEESLAESVGKPLYLIFRNLC [E9A], the protein stability index is 2.97.
In the case of EEITEESLNESVGKPLYLIFRNLC [E9N], the protein stability index amounted to 2.3.
Turning to EEITEESLPESVGKPLYLIFRNLC [E9P], the protein stability index amounted to 2.18.
Take EEITEESLIESVGKPLYLIFRNLC [E9I]: the protein stability index was 2.14.
For the variant EEITEESLVESVGKPLYLIFRNLC [E9V], the protein stability index was determined as 2.14.
